Assays:
Details in all cases: reference: EGFP-HURP wild type; sites S725
GP73 = GP73 (UniProt Q8NBJ4); experiment: co-IP of EGFP-HURP with GP73
GM130 = GM130 (UniProt Q08379); experiment: co-IP of EGFP-HURP with GM130
GRASP65 = GRASP65 (UniProt Q9BQQ3); experiment: co-IP of EGFP-HURP with GRASP65

Measured: binding against the reference

HURP (from UniProt Q15398) EGFP-HURP 725A
lost: all assays above

Reference: publication PMC10294536
